Results as given in the supplement of paper PMC11865577.

What was measured:
Assay in all cases: pull-down binding Z-score (relative to library population); higher = stronger binding
[1] = test system: G-clamp-N3 (biotin conjugate); details: RNA library: Library-1 (pre-miRNA loops + repeats)
Method in brief: (§1)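 Heat-folded RNA library (1 μg, Cy5 or Cy3 end label, phosphate/NaCl/KCl buffer) was captured for 60 min at 25 °C on streptavidin beads displaying 100 pmol of biotin-conjugated small molecule, then washed three times. The bound fraction, eluted in hot SDS, was hybridised to a DNA barcode microarray at 55.5 °C for 20 h. Z-scores for binding were taken against the library mean and standard deviation after beads-only subtraction and trimmed averaging of replicate barcoded probes.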

[2] = test system: TO-3-N3 (biotin conjugate); details: RNA library: Library-2
Method in brief: as §1

[3] = test system: TO-3-N3-2 (biotin conjugate); details: RNA library: Library-2
Method in brief: as §1

TO-N3 (biotin conjugate) = details: RNA library: Library-2
Method in brief: as §1

[4] = test system: TO-N3-2 (biotin conjugate); details: RNA library: Library-2
Method in brief: as §1

Sequence	pull-down binding Z-score [1]	pull-down binding Z-score [2]	pull-down binding Z-score [3]	pull-down binding Z-score (TO-N3 (biotin conjugate))	pull-down binding Z-score [4]
GCAGCACUGUGCUGGGGAUGUUGC [hsa-mir-1301]	1.24	1.08	0.078	1.04	0.858
GCAGCAGGCACCUGCUUCC [hsa-mir-6868]	-0.816	0.367	0.16	0.984	1.49
GCAGCCAGUCCUGUCUCACCGC [hsa-mir-6812]	-0.666	-0.19	-0.105	0.14	1.08
GCAGCCUUCUGCCUUUGGCUUUCUGAAGCGAGCUGA [hsa-mir-7158]	-0.699	0.327	0.292	0.769	1.09
GCAGCCUUGC [hsa-mir-4298]	0.364	0.177	-0.244	0.264	0.0238
GCAGCUAGUAAUAUGAGCCCAGUUGC [hsa-mir-153-2]	-0.831	0.0352	-0.0986	-0.011	0.128
GCAGCUAGUAUUCUCACUCCAGUUGC [hsa-mir-153-1]	-1.31	-0.447	-0.655	-0.204	0.592
GCAGCUGGAAUUCAAGCCCUGCUGC [hsa-mir-6882]	-0.0183	-0.477	-0.319	-0.475	0.0816
GCAGGCCGUGAACUCGUCGAGCUGCGCGUGCGGCCGGUGCUCA [hsa-mir-1199]	0.693	0.55	0.103	1.47	2.02
GCAGGGACCCCUCCAAGUUGGGGACGGCAGC [hsa-mir-6858]	-0.0891	0.172	0.0497	0.676	1.09
GCAGGUAGCUUUUUGAGAUCUACUGC [hsa-mir-106a]	0.281	-0.704	-0.00277	-0.711	-0.248
GCAGUCCUGUGGGAAUGAGAGAUGCCAAACUGGACCUGC [hsa-mir-3972]	1.52	0.53	0.373	1.4	1.38
GCAGUCUGCUUUGUGCCAACACUGGGGUGAUGACUGC [hsa-mir-3157]	1.23	0.502	-0.203	0.442	0.186
GCAGUGUCGUGGUCACAGCUUGCUGC [hsa-mir-1273h]	1.45	-0.396	-0.171	-0.0941	1.12
GCAUAAAAACAACUUUUGGGGGACAGGUAUGUUUUCUUGC [hsa-mir-5047]	0.0757	2.96	2.38	2.3	0.797
GCAUAUAGAGUAUAUGC [hsa-mir-4657]	0.625	-0.323	0.0599	-0.435	-0.526
GCAUCCAGACAGCGGGCGAAUGC [hsa-mir-6836]	0.0557	-0.0821	-0.113	0.33	1.13
GCAUCCUUGGAAUCUGCACUCAAGGGAUGC [hsa-mir-5089]	0.605	0.451	-0.0765	0.358	0.0295
GCAUGCCC [hsa-mir-1178]	-0.547	0.196	0.000996	0.287	0.552

Sequence	pull-down binding Z-score [1]	pull-down binding Z-score [2]	pull-down binding Z-score [3]	pull-down binding Z-score (TO-N3 (biotin conjugate))	pull-down binding Z-score [4]
GCAUGGGGCUAGGAGGCCCCGCGC [hsa-mir-6825]	-0.292	0.451	0.00553	0.391	0.142
GCAUUUUAUCUAAGAUACACACAAAGCAAAUGC [hsa-mir-4439]	-1.12	0.441	0.179	0.118	-0.81
GCCACAUGAGCUGGGCCUCGUGGGC [hsa-mir-770]	-0.657	0.237	-0.342	0.189	0.565
GCCAGACAUGCUCUUGC [hsa-mir-6894]	-1.34	-0.504	-0.349	-0.472	0.707
GCCAGAUGCUGAGCGAUGGC [hsa-mir-4730]	0.503	-0.32	-0.12	-0.217	0.603
GCCAGCAACCUGAUUACCCCUCUUUGGC [hsa-mir-6851]	-0.819	-0.53	-0.495	-0.552	0.533
GCCAGUCAGCGCUCACAUUAAGGCUGAC [hsa-mir-2277]	-0.612	-0.289	-0.0851	-0.222	0.0682
GCCAGUGUGUAAAAUGAGAACUGAUA [hsa-mir-3074]	0.474	0.677	0.757	1.14	1.66
GCCAGUGUUCAAGGGCCCCUCCUCUAGUACUCCCUGUUUGUGUUCUGCCACUGA [hsa-mir-6857]	-0.797	0.324	0.527	1.1	1.37
GCCAUCUGGUUGUGACAUCACUGAUGGC [hsa-mir-7155]	-0.231	1.09	0.0839	0.932	0.128
GCCAUGGAAAGUAAUGGC [hsa-mir-548ax]	0.538	-0.0453	-0.112	-0.269	0.319
GCCCCAGGGCAGGGGC [hsa-mir-4515]	1.01	-0.247	-0.473	-0.583	-0.972
GCCCGCUGUGUUCACUCGGGC [hsa-mir-602]	0.773	-0.169	-0.556	-0.398	-0.52
GCCCGGGCACCGCCCCUU [hsa-mir-718]	-1.53	-0.0729	-0.109	0.203	0.973
GCCCUGGGCCGGGCGAUGUCCGCUUGGGGG [hsa-mir-6090]	-0.223	0.811	0.149	1.11	1.41
GCCGCGGAAGAAGGGGAAGCGC [hsa-mir-6720]	2.21	1.46	0.61	1.61	1.86
GCCGGAGCGGGC [hsa-mir-1181]	1.74	0.493	0.0808	0.703	0.58
GCCGGGGCCUGGCGCUCCUCUACCUUGUCAGGUGACCCAGC [hsa-mir-4274]	-1.05	0.564	-0.179	0.538	0.434
